Assays:
Assay in all cases: holdup assay
Design in all cases: key: below the threshold = too weak to quantify, mostly under pKd 3.1 to 4
Conditions in all cases: plain residues with an end cap or a label only (N-terminal biotin on a linker: ado-ado)
[1] = molecular target: SCRIB_2, Q14160
[2] = molecular target: T1, SHANK1, Q9Y566
T1 sequence (Q9Y566 658-767, limits assumed, looked up): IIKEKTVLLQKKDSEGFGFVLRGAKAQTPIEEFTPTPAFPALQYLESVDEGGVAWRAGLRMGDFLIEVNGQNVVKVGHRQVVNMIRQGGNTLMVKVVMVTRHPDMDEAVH

[3] = molecular target: TJP2_1, Q9UDY2
[4] = molecular target: Inadl_5, Q8NI35
[5] = molecular target: LAP2, Q96RT1
[6] = molecular target: T2, DFNB31_2, Q9P202
T2 sequence (Q9P202 274-371, limits assumed, looked up): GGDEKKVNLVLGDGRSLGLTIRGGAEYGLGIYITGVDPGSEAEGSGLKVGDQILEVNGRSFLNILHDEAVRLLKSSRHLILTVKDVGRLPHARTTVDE

[7] = molecular target: T3, ARHGEF11, O15085
T3 sequence (O15085 42-136, limits assumed, looked up): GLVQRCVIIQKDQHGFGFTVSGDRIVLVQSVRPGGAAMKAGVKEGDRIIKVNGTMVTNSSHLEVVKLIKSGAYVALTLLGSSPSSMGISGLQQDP

[8] = molecular target: T4, PDZRN3_1, Q9UPQ7
T4 sequence (Q9UPQ7 244-349, limits assumed, looked up): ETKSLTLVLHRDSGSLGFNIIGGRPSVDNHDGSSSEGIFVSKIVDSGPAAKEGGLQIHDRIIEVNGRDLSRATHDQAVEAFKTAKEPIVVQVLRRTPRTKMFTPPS

[9] = molecular target: Inadl_4, Q8NI35
[10] = molecular target: T5, LNX2_3, Q8N448
T5 sequence (Q8N448 463-564, limits assumed, looked up): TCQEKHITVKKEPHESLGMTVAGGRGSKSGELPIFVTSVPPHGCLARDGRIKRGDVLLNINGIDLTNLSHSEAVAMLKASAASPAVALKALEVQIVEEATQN

[11] = molecular target: T6, GRIP1_2, Q9Y3R0
T6 sequence (Q9Y3R0 145-248, limits assumed, looked up): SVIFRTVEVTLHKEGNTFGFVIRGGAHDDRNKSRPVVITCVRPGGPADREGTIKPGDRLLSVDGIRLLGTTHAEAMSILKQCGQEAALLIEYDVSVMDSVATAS

[12] = molecular target: MAGI3_2, Q5TCQ9
[13] = molecular target: Inadl_3, Q8NI35
[14] = molecular target: HTRA1, Q92743
[15] = molecular target: T7, SNTB1, Q13884
T7 sequence (Q13884 107-205, limits assumed, looked up): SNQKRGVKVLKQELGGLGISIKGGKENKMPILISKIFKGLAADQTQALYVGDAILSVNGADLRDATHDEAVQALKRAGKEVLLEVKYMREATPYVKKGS

[16] = molecular target: PICK1, Q9NRD5
[17] = molecular target: Inadl_8, Q8NI35
[18] = molecular target: T8, PTPN13_1, Q12923
T8 sequence (Q12923 1088-1188, limits assumed, looked up): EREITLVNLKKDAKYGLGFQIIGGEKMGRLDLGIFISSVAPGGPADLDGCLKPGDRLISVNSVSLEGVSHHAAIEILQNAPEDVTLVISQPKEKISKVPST

[19] = molecular target: GRIP2_3, Q9C0E4
[20] = molecular target: GRASP, Q7Z6J2
[21] = molecular target: Inadl_10, Q8NI35
[22] = molecular target: T9, LIN7B, Q9HAP6
T9 sequence (Q9HAP6 88-185, limits assumed, looked up): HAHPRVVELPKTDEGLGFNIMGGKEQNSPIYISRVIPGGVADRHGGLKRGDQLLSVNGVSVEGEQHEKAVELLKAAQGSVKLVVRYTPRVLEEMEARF

[23] = molecular target: AHNAK1, Q09666
[24] = molecular target: T10, TX1BP3, O14907
T10 sequence (O14907 10-122, limits assumed, looked up): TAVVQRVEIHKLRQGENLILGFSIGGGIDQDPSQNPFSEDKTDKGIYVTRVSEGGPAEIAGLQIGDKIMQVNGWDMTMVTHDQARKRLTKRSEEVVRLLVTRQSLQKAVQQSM

[25] = molecular target: PARD3_3, Q8TEW0
[26] = molecular target: T11, PDZD2_2, O15018
T11 sequence (O15018 329-429, limits assumed, looked up): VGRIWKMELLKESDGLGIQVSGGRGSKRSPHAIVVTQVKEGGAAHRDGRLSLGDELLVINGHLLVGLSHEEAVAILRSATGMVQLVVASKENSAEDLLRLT

MAGI3_2, Q5TCQ9, sequence (Q5TCQ9 398-503): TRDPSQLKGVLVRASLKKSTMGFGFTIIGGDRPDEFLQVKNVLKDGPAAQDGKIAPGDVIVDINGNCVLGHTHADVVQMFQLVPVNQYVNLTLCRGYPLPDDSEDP
Inadl_4, Q8NI35, sequence (Q8NI35 547-651): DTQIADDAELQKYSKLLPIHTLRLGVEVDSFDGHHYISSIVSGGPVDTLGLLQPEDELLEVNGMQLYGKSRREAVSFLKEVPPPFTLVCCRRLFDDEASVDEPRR
GRIP2_3, Q9C0E4, sequence (Q9C0E4 238-339): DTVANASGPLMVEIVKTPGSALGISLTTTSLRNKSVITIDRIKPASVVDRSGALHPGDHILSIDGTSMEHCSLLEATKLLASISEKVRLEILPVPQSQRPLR
TJP2_1, Q9UDY2, sequence (Q9UDY2 24-128): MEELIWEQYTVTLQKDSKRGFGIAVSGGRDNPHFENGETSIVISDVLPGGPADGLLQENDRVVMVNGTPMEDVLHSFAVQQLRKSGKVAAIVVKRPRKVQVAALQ
Inadl_10, Q8NI35, sequence (Q8NI35 1673-1763): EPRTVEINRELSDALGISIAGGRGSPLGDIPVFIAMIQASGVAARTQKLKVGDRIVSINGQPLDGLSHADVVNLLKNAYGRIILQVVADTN
HTRA1, Q92743, sequence (Q92743 360-477): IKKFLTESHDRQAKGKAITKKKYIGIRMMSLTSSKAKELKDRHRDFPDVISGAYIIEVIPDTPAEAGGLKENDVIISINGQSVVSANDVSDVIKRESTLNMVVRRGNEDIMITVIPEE
PARD3_3, Q8TEW0, sequence (Q8TEW0 582-685): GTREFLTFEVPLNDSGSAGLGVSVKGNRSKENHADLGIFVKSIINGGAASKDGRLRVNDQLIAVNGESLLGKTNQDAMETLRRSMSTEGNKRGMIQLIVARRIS
LAP2, Q96RT1, sequence (Q96RT1 other isoform, or with tags, fused parts or gaps): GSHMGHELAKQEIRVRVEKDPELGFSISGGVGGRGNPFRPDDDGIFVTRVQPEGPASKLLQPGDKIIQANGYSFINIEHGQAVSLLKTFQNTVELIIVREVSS
AHNAK1, Q09666, sequence (Q09666 4-100): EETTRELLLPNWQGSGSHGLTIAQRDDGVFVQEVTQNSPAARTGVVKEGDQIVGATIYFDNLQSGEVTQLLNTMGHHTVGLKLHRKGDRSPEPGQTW
GRASP, Q7Z6J2, sequence (Q7Z6J2 96-193): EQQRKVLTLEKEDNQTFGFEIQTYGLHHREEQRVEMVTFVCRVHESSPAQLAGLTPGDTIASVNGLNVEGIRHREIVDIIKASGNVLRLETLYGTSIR
Inadl_8, Q8NI35, sequence (Q8NI35 1425-1530): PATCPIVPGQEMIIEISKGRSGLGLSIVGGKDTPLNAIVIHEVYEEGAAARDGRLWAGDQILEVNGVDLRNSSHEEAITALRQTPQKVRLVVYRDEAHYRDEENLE
Inadl_5, Q8NI35, sequence (Q8NI35 673-780): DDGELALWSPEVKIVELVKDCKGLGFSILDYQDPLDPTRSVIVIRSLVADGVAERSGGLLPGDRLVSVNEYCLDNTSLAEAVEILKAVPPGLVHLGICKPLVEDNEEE
Inadl_3, Q8NI35, sequence (Q8NI35 359-469): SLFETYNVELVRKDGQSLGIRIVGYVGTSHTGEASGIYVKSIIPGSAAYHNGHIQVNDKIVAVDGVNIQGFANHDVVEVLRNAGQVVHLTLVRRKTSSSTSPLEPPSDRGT
SCRIB_2, Q14160, sequence (Q14160 857-960): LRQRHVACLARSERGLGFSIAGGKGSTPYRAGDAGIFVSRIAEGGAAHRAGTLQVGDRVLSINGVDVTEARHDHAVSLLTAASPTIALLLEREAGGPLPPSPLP
PICK1, Q9NRD5, sequence (Q9NRD5 17-115): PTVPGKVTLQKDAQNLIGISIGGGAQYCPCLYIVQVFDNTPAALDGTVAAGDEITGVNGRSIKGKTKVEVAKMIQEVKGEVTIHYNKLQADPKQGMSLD

| Binder | pKd [1] | pKd [2] | pKd [3] | pKd [4] | pKd [5] | pKd [6] | pKd [7] | pKd [8] | pKd [9] | pKd [10] | pKd [11] | pKd [12] | pKd [13] | pKd [14] | pKd [15] | pKd [16] | pKd [17] | pKd [18] | pKd [19] | pKd [20] | other results |
| --- | --- | --- | --- | --- | --- | --- | --- | --- | --- | --- | --- | --- | --- | --- | --- | --- | --- | --- | --- | --- | --- |
| DGVNEKVSCV [HTR2A, P28223] | 3.64 | below the threshold | 3.82 | below the threshold | below the threshold | below the threshold | 4.18 | below the threshold | below the threshold | below the threshold | below the threshold | 4.47 | below the threshold | 4.95 | 4.72 | below the threshold | 4.81 | below the threshold | below the threshold | 4.21 | pKd [21]: below the threshold; pKd [22]: 3.79; pKd [23]: below the threshold; pKd [24]: 3.61; pKd [25]: below the threshold; pKd [26]: 6 |
| REEPDHSTEV [CCRL2, O00421] | 4.32 | 4.13 | below the threshold | below the threshold | 4.15 | below the threshold | 4.77 | 4.2 | below the threshold | below the threshold | 3.5 | below the threshold | 3.85 | 4.44 | 4.36 | below the threshold | below the threshold | below the threshold | below the threshold | 3.77 | pKd [21]: below the threshold; pKd [22]: below the threshold; pKd [23]: below the threshold; pKd [24]: 3.49; pKd [25]: 3.61; pKd [26]: 5.32 |
| QSYPSKHDYV [CLDN18, P56856] | below the threshold | below the threshold | 4.16 | 3.57 | below the threshold | below the threshold | 3.81 | below the threshold | below the threshold | below the threshold | 3.58 | below the threshold | below the threshold | 4.32 | below the threshold | 4.26 | 4.22 | below the threshold | below the threshold | 3.71 | pKd [21]: below the threshold; pKd [22]: below the threshold; pKd [23]: below the threshold; pKd [24]: 4.17; pKd [25]: 3.69; pKd [26]: 4.86 |
